Assay results from the supplement of paper PMC12042874.
± gives the uncertainty stated by the source.

Test: amyloid nucleation score (Sup35N fusion, yeast selection) (log enrichment); library NNK1; higher = more nucleation; inactive = no reads after selection
Summary of the method: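 The nucleation score is a DiMSum log enrichment of output over input reads, centred on the mode score of non-aggregating sequences. Sequences under 100 input reads were excluded, and reads came from Illumina sequencing of plasmid inserts. Psi-negative yeast expressing Sup35N fused to peptides of 20 random codons were induced with 100 μM copper sulfate for 24 hours and grown 7 days at 30°C on medium lacking adenine and uracil. Random libraries had three technical output replicates.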

| Substance | amyloid nucleation score |
| --- | --- |
| AEYNVGLLSCSNDSLWDQWS | inactive |
| AFALHSHFLSL | 1.75 ± 0.19 |
| AFAVTASAITTVPPYREFVG | -0.545 ± 0.82 |
| AFDIVDRSRYILY | 0.58 ± 0.6 |
| AFLGYNKIVGLNLAVLNTVG | inactive |
| AFLKLSTRWWKPVIFYKCDL | -0.932 ± 1.1 |
| AFLLEMKTKAATPRCYLRDM | 0.532 ± 0.85 |
| AFMGPWEPFLVHFTRRPSPY | -0.856 ± 2.4 |
| AFPQFLGCLVIFQSHGRRER | 8.1 ± 0.064 |
| AFPSVRSAFSYLVVPCTICT | 0.606 ± 0.53 |
| AFQESRGQSNWYIYMLVHTS | 1.11 ± 0.54 |
| AFSSLTC | -0.087 ± 1 |
| AFVLDIYMGMRSRYNDAPS | 1.78 ± 0.31 |
| AFYSEMGFSDVYILLVYSMM | 4.45 ± 0.073 |
| AGDLGPREQGR | 0.171 ± 1.2 |
| AGDTMAVWLPHQKRGGCFEM | -0.815 ± 1.2 |
| AGVAPYWVPTSEQDQLRRGT | -0.721 ± 1.9 |
| AGYCVCLYMLEYSGTFGYSH | 1.63 ± 0.19 |
| AHIISIKYLGSIFNKRRRFA | 0.874 ± 0.66 |
| AIAGSAMVEGAH | 0.985 ± 0.77 |
| AIDSVNMTTLRWM | 0.292 ± 0.62 |
| AILVGMFYAKTVGGQYRVHG | 0.369 ± 0.61 |
| AIVSGRTFDKPNMKRCL | -1.44 ± 0.69 |
| AKEVLYFR | 0.505 ± 0.24 |
| AKKWNSSMAKCNFNCLKSVW | -2.05 ± 2.7 |
| AKMYLRTLYTSPLRLPLAPQ | -0.333 ± 1.4 |

| Substance | amyloid nucleation score |
| --- | --- |
| AKSREWGDIARFSHPPALRA | -0.147 ± 0.4 |
| ALCYPLMDSRSSRSYVQTRR | 2.61 ± 0.12 |
| ALIFYRFLL | 0.863 ± 0.41 |
| ALILTVIDHVSAHYYVAEDV | 5.59 ± 0.081 |
| ALLPKFCDIKFVVEKNGENR | 0.181 ± 1.4 |
| ALNYSRGMTMVGVCLPHKLT | -0.147 ± 0.3 |
| ALPHSKFKAMVFRSLWRDRG | 0.51 ± 1.2 |
| ALRAHHSL | 0.498 ± 0.56 |
| ALRRIGSFVVHLDIRAVSQT | 1.09 ± 0.5 |
| ALSSAALEYNIPVGSGAFVN | 0.25 ± 1.4 |
| ALSSVNFFQLL | 4.45 ± 0.12 |
| ALVALRAY | 0.364 ± 1.2 |
| ALVFSALLVFRCGDCAASKA | 4.25 ± 0.062 |
| AMKLVPLNLYFKDNKNQSSC | -0.033 ± 0.31 |
| AMWYMKCNTYKVWLGDMYLV | 0.193 ± 0.18 |
| ANFGFWFAFYSAARSDRTSL | -0.421 ± 1.2 |
| ANGLMGSWSLEARSFRSDVL | -0.179 ± 1.5 |
| ANTPRFMNTLV | -0.824 ± 0.51 |
| ANWFL | 0.479 ± 0.45 |
| APGDWLLSDASAAVGEMVE | 0.778 ± 0.81 |
| APQFTKGFSEFGDLGAMRRA | 0.196 ± 0.67 |
| AQNSWGGILSVTAGQEFYCL | -0.674 ± 1.7 |
| AQQGIYCRCTVCGQ | 1.41 ± 0.28 |
| ARERGCRSAH | 0.332 ± 0.42 |
| ARFMLAWEVNCQG | 1.39 ± 0.22 |
| ARSFETLLTTSRGGKVDWLT | -0.272 ± 0.24 |

| Substance | amyloid nucleation score |
| --- | --- |
| ARYRYVTVYQV | -0.725 ± 0.35 |
| ARYYIVREGSEKCDLLTGRG | 0.004 ± 0.61 |
| ASAMLMHF | 0.716 ± 0.2 |
| ASDMSCMQSNSYFNLWTYTM | 1.32 ± 0.4 |
| ASFQFSSCMCSLYAVFSRLL | 0.759 ± 0.44 |
| ASFSLDYSFQMPYILRWFIR | 1.03 ± 0.33 |
| ASLAMISRMYSSYLDGMVFS | -0.412 ± 0.91 |
| ASLKCEKGVCGVFGWSGVGH | -0.687 ± 1.4 |
| ASLRLSTSLCEYGYRGRYTK | -0.05 ± 0.25 |
| ASRIHYWWS | 0.787 ± 0.25 |
| ASRYGSLVPRVVKHLMTRGN | -1 ± 0.67 |
| ASVFLNQLLPCNYSAVRMGS | 0.134 ± 0.84 |
| ATCNSVRARGFTPGHHLAPG | -0.405 ± 1.7 |
| ATKSLRIYLARVMHETSTFG | -0.822 ± 0.61 |
| ATLEGVCNINHPSCCASLLD | 0.002 ± 0.61 |
| ATLHGFLLKICLADVLAYLV | 0.476 ± 0.42 |
| ATMSRGFKQ | 0.834 ± 0.36 |
| ATNSEAARYLS | 0.996 ± 0.62 |
| ATRVFLHIATQRSNLAYLPN | -0.189 ± 0.25 |
| ATSKRIQWLMRERAPPTRYP | 0.203 ± 1.5 |
| ATVSDF | -0.478 ± 0.36 |
| AVEVYGVISRKLINVSDRIG | 0.588 ± 0.69 |
| AVKEGWLFSQVVVERGWNL | -0.588 ± 0.63 |
| AVSAFSTVKSSFGDGGIGFF | -0.398 ± 0.34 |
| AVSSVVPGTCL | 0.55 ± 0.68 |
| AVVCVIIFYVNDRLYGCNLS | 0.395 ± 0.23 |

| Substance | amyloid nucleation score |
| --- | --- |
| AVVDRDMHYASTCSGGVGCH | -0.186 ± 0.96 |
| AVVWDTIYNKTKPLVRP | 0.57 ± 0.93 |
| AWCSSDGCFCPKRYMLLRSL | 0.159 ± 0.84 |
| AWGRDYEELSSPLGMKALTW | 0.381 ± 0.31 |
| AWKGRLAYKWIGNMMAGLVW | 0.005 ± 0.32 |
| AWKLRVFRDSAL | 0.608 ± 1.1 |
| AWLKSSGEEVVAGAQRPEHV | -1.02 ± 0.9 |
| AWNGFDWYHARFCTMSTYIL | -0.56 ± 0.38 |
| AWSLTSTHFG | 0.249 ± 0.69 |
| AYCFNSTGLSRFCSKYLWSN | -0.478 ± 0.45 |
| AYCGSWLQYL | -0.231 ± 0.76 |
| AYCVAHTYCMSGMRYIADWV | 0.421 ± 0.31 |
| AYETLR | -0.385 ± 0.59 |
| AYLADCFPDVSTNWVRAISA | -0.337 ± 0.29 |
| AYSERTSGTMTRVWWDLRSR | -0.795 ± 1.1 |
| AYSRNYYQYAVNEFGDVVFE | 0.312 ± 1.1 |
| AYYGDGFAKGTMLMTS | -0.35 ± 0.32 |
| CAAGARSSGEMAYIARMKAG | 0.482 ± 0.69 |
| CAIWFRTEWFWTVCTWVSGH | -0.201 ± 0.43 |
| CAKGGPSGYKN | -1.41 ± 0.98 |
| CALLRCMLGSYSQYVARVGE | 0.504 ± 0.39 |
| CANFVFCCMGE | 7.396 ± 0.072 |
| CCGVDAFSSRESR | 1.55 ± 0.41 |
| CCLTILSIS | -0.281 ± 0.31 |
| CCRSRLLIITRTVSTAGDSR | -0.54 ± 1.3 |
| CCSRGLKVPDANRASKSGCE | 1.08 ± 0.52 |

| Substance | amyloid nucleation score |
| --- | --- |
| CCVDGLLLIERHVSLQYHSA | 0.135 ± 0.63 |
| CCVRACFPWNVLCKEMIFTR | -0.663 ± 1.6 |
| CDINLRKDTGISHLNGLFNA | 0.755 ± 0.43 |
| CDIVNKSTGGLSTRALKIVY | 0.051 ± 0.69 |
| CDKTYPANSLCLKDFGQLEG | -0.019 ± 0.64 |
| CDQASL | inactive |
| CDRVGSKEQSFDKWPLWFAP | -1.18 ± 1.9 |
| CDTFYLLVLALTYWEWANLE | -0.497 ± 0.99 |
| CDVAVVSFFGMADDPVYRVH | 1.54 ± 0.48 |
| CDVRLPF | 0.249 ± 0.61 |
| CDWSCSDSVCFITLCKYDDC | 6.921 ± 0.047 |
| CECRRANVADPFRVSCWAKF | 0.156 ± 1.2 |
| CEKTWNLRDCSGLLQVTRG | 0.099 ± 0.29 |
| CENVIEFNENVKG | 0.503 ± 0.29 |
| CEVAQCHYLVVWFCAWAWRY | 0.939 ± 0.68 |
| CFDFYSYRVVSSAINYQFVM | -1.02 ± 0.39 |
| CFEVHTHSESLL | -0.662 ± 0.72 |
| CFFDGICLDQERYVMNFRAF | 0.104 ± 0.51 |
| CFFILW | -0.066 ± 0.55 |
| CFILTVTYLNVGGNRMTAFH | 3.36 ± 0.1 |
| CFNTRHRVQELRL | -0.224 ± 1.7 |
| CFNVYWLFAIGGYGMRLRSD | -1.04 ± 1.1 |
